Reference: patent US20250195573A1

Target: MART-1(27-35) presented by HLA-A2 on A375 melanoma cells (human) (UniProt Q16655)
Experiment: cell-based or functional assay

DMF5 β:CD3z:MyD88 (from UniProt P20963 52-164; Q99836 1-155) (TCR)
TNFa, IFNg, or IL-2 in supernatant by ELISA, T cells with peptide-pulsed A375 cells (× less antigen): 10
